This note sets out measurements from article PMC7865249.

For test [1], the target named is H111A HupZ-V5-His6 (Streptococcus pyogenes (Group A Streptococcus)). The test can be described thus: SEC; ligand-free protein, 200 uM, 1 mL injected; Superdex Increase 200 10/300 GL, 20 mM Tris-HCl, 50 mM NaCl, pH 7.4, 0.4 mL/min; mass from a calibration curve of standards.
Test [2] shares this target. The experiment in a line: SEC; protein reconstituted with 1.2 eq hemin and desalted, 200 uM, 1 mL injected; Superdex Increase 200 10/300 GL, 20 mM Tris-HCl, 50 mM NaCl, pH 7.4, 0.4 mL/min; mass from a calibration curve of standards.
The target in test [3] is HupZ-V5-His6 (heme utilization protein Z with a C-terminal V5-His6 tag) (Streptococcus pyogenes (Group A Streptococcus)). The experiment in a line: SEC; ligand-free protein, 200 uM, 1 mL injected; Superdex Increase 200 10/300 GL, 20 mM Tris-HCl, 50 mM NaCl, pH 7.4, 0.4 mL/min; mass from a calibration curve of standards.
Test [4] shares this target. The experiment in a line: SEC; protein reconstituted with 1.2 eq hemin and desalted, 200 uM, 1 mL injected; Superdex Increase 200 10/300 GL, 20 mM Tris-HCl, 50 mM NaCl, pH 7.4, 0.4 mL/min; mass from a calibration curve of standards.

On to H111A HupZ-V5-His6 (natural protein), for which the stoichiometry N in test [1] and in test [2] was 2 throughout.
Consider “HupZ-V5-His6 (heme utilization protein Z with a C-terminal V5-His6 tag) (natural protein)”, for which the stoichiometry N in test [3] and in test [4] was 2 in each case.

What is called stoichiometry N is a count of units in the complex or per binding partner.
